Assay results reported in the DeepSol protein solubility set.

assay: soluble on expression in E. coli; label from the status in PepcDB or PDB records

Row | Sequence | soluble on expression in E. coli
1 | MGSDKIHHHHHHMALMTNKTRALLIGGHGKVALLATPMLIDASVQVTSMYRNPDHRSEIEALGATTLERDVTTLSVEDWADLLKDFDVVVWSAGNGGKNGADATYAIDRDAAIASIDGAASLGEKAPRYIMVSYIGSSTHTIDPSASFYPYAESKKAADEHLSSTNLDYLILAPAALTLDEVNGVEVIADTNEAAAGRTTSRVLVAEVITEFVVRDFPQTRVLPFVDGESPVSSIS | not soluble
2 | MGSDKIHHHHHHMALNLKKLPILFLSDSTTSVAISREAKAGRIRKIGPRLYTSNTSDDPAYIIRQNWLQALTLLFPGCVVSNRTALESRVSPAGRVYVTGDYARTLELHGTKFVQVKGSPPVEGDTPLLGIFMASRARALLENLTPSRERSGGELKNLPREMIERRLAELLNVEKEDSVNRLRDQARQIAPLLGLEKEFDELDDLIGTLLRTRKATLADPVAKAHQLGTPYDPHALERVETLWSVLASMPHNYRPTNAGTGTPFYTVSFFDAYFSNYIEGTRFKVDEAKEIVDSGVIPAIRPADGHDILGTYRVVSSLENMRRTPKNPDEFIELLQSRHADIMVGRPDKRPGEFKEEVNYAGATRFVDPDLVRGTLSQGFSLYKSLEHPFARALLIMFLVAEVHPFDDGNGRAARAMMNSELITAEETRIIIPSVFRNEYVASLKRMTNHLQPESFISVMSFAQEFVSRISFDSYASARVQMEGCNAFDDPADDKRLLQPSIS | not soluble
3 | MGSDKIHHHHHHMANALLQKWVERAERRALFWWQPKNGGVNMGDHLSKVIVSCVLALQDKTLLEKRDLRKKLIATGSVLHFAKDGDTVWGSGINGKIPAERNTFSTLDVRAVRGPKTRAFLLERGIAVPEVYGDPGLLTPMFFPADALGPVTKRPFAIVPHFNEPVEKYSAYAEHLVFPNVKPATFMSALLGAKFVISSSLHGLILAEAYGIPAVYLDWGNGEDRFKYDDYYHGTRRMQWHAGHSVEECMELGGNGSFDLERLQAGLLAAFPYDLW | not soluble
4 | MGSDKIHHHHHHMANKIKVLLTGAGSTLGREILAQLLTMRKVFEISVLDIKRGHTMAFFEKYKKEIHIFYGDCSVQDNTVEACKGQDFVIHCQSLEKANADKRLRLAEDVNTMGTRYIIENLERFSPGAYLLYISTVGVYGDRLKAPMISADNMTCPSMGDYDALTKLQAEKLVQESSLEWTIYRPGIILGHDSSLLNSSVFCMPLATRFETVHIRDLASACVKAYDHKASLWGRTYNVGGGEACRIVYSDYIRRLFKLLGLGYPEFPDRAFATRNRFGGYFADGDALEAILHFRRHTIEDYFKELAAQQPILKKLANKIFVGVQRKSLEGKSAPLRAIKENDRAKKKYYF | not soluble
5 | MGSDKIHHHHHHMANVKWTMKAREFVNCNCAYGCPCQFNAMPTHGFCQAVTGIEIESGHHGATKLDGLRLVGIFRWPGAIHQGGGEAAVVVDERASEAQREALLRILGGQDTKPGATIFEVFSTTLEKFHDPIFAPIEFEVDVDARTGRLHVEGVADGHGEPIKNPVTGAEHRARIDLPHGFEYAMAEIGRGWTKATGPIKFEVADTHSHFANLHLTQSGVVH | not soluble
6 | MGSDKIHHHHHHMAPEDWLRAQMQGEIVALVHSHPGGLPWLSEADRRLQVQSDLPWWLVCRGTIHKFRCVPHLTGRRFEHGVTDCYTLFRDAYHLAGIEMPDFHRGDDWWRHGQNLYLDNLEATGLYQVPLSSAQPGDVLLCCFGSSVPNHAAIYCGDGELLHHIPEQLSKRERYTDKWQRRTHSLWRHREWHASAFTGICNDLAAASTFV | not soluble
7 | MGSDKIHHHHHHMAPLAPLALSELGPKLDRSIDPLWISRQSLEAEPNAFKPGCGWLPNDWMPLESIRKALRSATRREDDSLLGYSSPLGLSALRDLLARRAQSKGIEANLNQVLLTDSGTQAIDLVCRFLLKPDDVVLIDDPCYFNFHALLKVHQVKVVGIPYTPNGPDLEAFKEAIESYNPRLYITNSGIHNPTGATLSLSTAHQLLKLIDQSNLIVIEDDIFSDFEYTPAPRLAALDNLSRVIFIGSFSKTLSASIRCGYIIAKPEWIDQIADLKIATSFSHNGLSAKILHTALTDGSYRKHLDLLKVRLAQAMQETIAKLKSIGIEPWIEPKAGIFVWCRLPEGVDAAKIARFCLNRQVILAPGNAFSQAQSAGQFIRFNITQSNHDYIYKTLAEALLQESLEKQV | not soluble
8 | MGSDKIHHHHHHMARETQCNRQTDCAQCPKATEGILVHRKFPKGQHFPPDKCTQNCILFILQGELLVNSEEYPGTTLREGQFILQSIGSKLELLALTDVNYVVYWFNEPPLICEQRYHEILQQSEAPLTYTPLVMTQRITNFMKDICDYLDEQMPCGAFIDLKCQELMYLIICYYPIPQLSKFFYPISSYTESFQYFVMQNYEKVKNVEEFAHLGGYTTTTFRRLFKNMYGVPVYEWILSKKREGILEDLQHTKQRITEISNRYGFDSLSHFAHFCKASFGDSPRALRTRAARGEKITALKTE | not soluble
9 | MGSDKIHHHHHHMARSWLDYKTQAWVQWCPGCGDFGILNSIYRAVSELGIDPENLAVVGGIGCSGRTTYYVKGSNFHALHGRAIPVATGVKLANPHLNVIVAGGDGDLMGIGGGHFVALGRRNLNITVLLFDNAVYGLTKGQAAPTLPAWVKTKALSMPNIHDNINPVLLAFAAGYTFIARGYAYHTQQLKELIKTAVRHRGAALVDILQPCPTYNNIMTNKWYEERIYYVDQEEGYDPIIRTPEEFQKKAPAIAAKLMEFGDRIPLGILYWNQTRESFEERLEKIMPGYMSAPPATRRIELEGKPFLHPFDIFKDRLVTP | not soluble
10 | MGSDKIHHHHHHMARVPRFALVERDSSNHCTWRAHDLEFVFEEPGARDKFLELVGRYKDRYGVEIRSYCLMGTHPHVTCTCRQEQVQFSRFWQVVNGQFARWYNKVRNRRGQVVMERMRTPRIQEGGAHQLTVMRYGDLNPVRAGLVKSPKDWKWSSYRHYAFGEPNPLITDAPEYLALGKTAQERRKAYQALFALPLSESLRTRRVELVSFPFVGDATWVMRRLEAAGLSPPD | not soluble
11 | MGSDKIHHHHHHMARYTGPLCKLCRREGMKLYLKGERCYTDKCAFDRRPYAPGQHGQRRTKLTQYGIQLRAKQTVKRIYGILERQFERYVEKAMQKAGDTRENLIQILEARLDNVVYRMGFAINRRQARQLVNHGHFLVNGKKVNIPSYLLRPNDVVEVREKSRDLEVIKKAIEANKERSIVPWIEVDYDNYRGTFLRYPSLEEVTDLPVDLQTVIEFYSR | not soluble
12 | MGSDKIHHHHHHMASFQSFGIPGQLEVIKKALDHVRVGVVITDPALEDNPIVYVNQGFVQMTGYETEEILGKNCRFLQGKHTDPAEVDNIRTALQNKEPVTVQIQNYKKDGTMFWNELNIDPMEIEDKTYFVGIQNDITKQKEYEKLLEDSLTEITALSTPIVPIRNGISALPLVGNLTEERFNSIVCTLTNILSTSKDDYLIIDLSGLAQVNEQTADQIFKLSHLLKLTGTELIITGIKPELAMKMNKLDANFSSLKTYSNVKDAVKVLPIM | not soluble
13 | MGSDKIHHHHHHMASQRGDTKLQLLRDTSLSHDGLNHTILTLNQLLHQRAPFYGEHLSATTSPTGLSFDEWSCADTYQKLIARFAIAHPSAENQTETKTENETETDKTAATSRTPAFASKSALVSKNAVPSRKDTRKALHSLWGQWYFGLLVPPMMEWIFNAPKTDVETLHWQPQSVFMQVHPSGRVAKFEFKIAKYQPITALTFKKHHGIEPLSRTNTKPSIKIDTEVHSPLSPYKPSVDKELVLQGFILNLLQSSVDRLLTLSPVPAKLYWSHLGYLIHWYLGELGLSQQQNQQLKQALFRRTTFLDGSTNPLYNSINLLIEPEQDSATPYTVARIVTSTASRSKPSPKIHCIRRTCCLRYQLANTGQCHDCPLLSRAKVNVNATKQT | not soluble
14 | MGSDKIHHHHHHMATELFTWHTLSDTLSDFKSGLSLAQNSGAESLLVLTCSQNNYPEEELNALFHACPLKLFGGIYPMLTLKGDLIKQGALIIGFKEAVDVTLFAQLNQVTNESCLEELITSTLKEKNNFCGQDDFLMFYDALISNIEGFIDCLFEHLDHGINIAGGGAGNLDFIQRHCIFTNSGVHSDAILLVALPRTLNTSVAHGWETFDEPFLVSEAQGQTVQSLNYQPAYEVYCQTIESATEYTFNNTDFFDIAKNFPLGIKDINNNIIVRDPILAKNNHLQCFGNIPINSMVYLLESNIDSLVASTEKAAIALLSKLNKTTITTTMVFDCISRALFMEDEFEKELNVIAEHCHLGALFGVLSLGEIANSQSGAIRLLNKSIVISSW | not soluble
